# Earlier results, collected in publication PMC11970764.
# Molecular target: HIF-1α PAS-B (Homo sapiens) (UniProt Q16665)
# Test: ITC
# Chain of UniProt Q16665 (Q16665 238-349): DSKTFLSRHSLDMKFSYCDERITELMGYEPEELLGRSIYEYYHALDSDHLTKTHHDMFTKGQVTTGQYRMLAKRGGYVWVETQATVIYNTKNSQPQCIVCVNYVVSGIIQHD
substance,measurement,value
Cyclo-C(TAT)LLFVY,Kd,124 nM
